Test system: ARPE-19 cells
Experiment: Screening of individual supplements on ARPE-19 cell growth, 96-well plate, Hoechst nuclear stain
Type: cell-based, human
Conditions: components with p-value of <0.05; DMEM/F12 2% FBS, days 2-8 post plant, FIG. 1

B1: EGF: Epidermal Growth Factor, growth factor supplement (protein, UniProt P01133 23-1207, looked up)
Pro-epidermal growth factor: PQHWSCPEGTLAGNGNSTCVGPAPFLIFSHGNSIFRIDTEGTNYEQLVVDAGVSVIMDFHYNEKRIYWVDLERQLLQRVFLNGSRQERVCNIEKNVSGMAINWINEEVIWSNQQEGIITVTDMKGNNSHILLSALKYPANVAVDPVERFIFWSSEVAGSLYRADLDGVGVKALLETSEKITAVSLDVLDKRLFWIQYNREGSNSLICSCDYDGGSVHISKHPTQHNLFAMSLFGDRIFYSTWKMKTIWIANKHTGKDMVRINLHSSFVPLGELKVVHPLAQPKAEDDTWEPEQKLCKLRKGNCSSTVCGQDLQSHLCMCAEGYALSRDRKYCEDVNECAFWNHGCTLGCKNTPGSYYCTCPVGFVLLPDGKRCHQLVSCPRNVSECSHDCVLTSEGPLCFCPEGSVLERDGKTCSGCSSPDNGGCSQLCVPLSPVSWECDCFPGYDLQLDEKSCAASGPQPFLLFANSQDIRHMHFDGTDYGTLLSQQMGMVYALDHDPVENKIYFAHTALKWIERANMDGSQRERLIEEGVDVPEGLAVDWIGRRFYWTDRGKSLIGRSDLNGKRSKIITKENISQPRGIAVHPMAKRLFWTDTGINPRIESSSLQGLGRLVIASSDLIWPSGITIDFLTDKLYWCDAKQSVIEMANLDGSKRRRLTQNDVGHPFAVAVFEDYVWFSDWAMPSVMRVNKRTGKDRVRLQGSMLKPSSLVVVHPLAKPGADPCLYQNGGCEHICKKRLGTAWCSCREGFMKASDGKTCLALDGHQLLAGGEVDLKNQVTPLDILSKTRVSEDNITESQHMLVAEIMVSDQDDCAPVGCSMYARCISEGEDATCQCLKGFAGDGKLCSDIDECEMGVPVCPPASSKCINTEGGYVCRCSEGYQGDGIHCLDIDECQLGEHSCGENASCTNTEGGYTCMCAGRLSEPGLICPDSTPPPHLREDDHHYSVRNSDSECPLSHDGYCLHDGVCMYIEALDKYACNCVVGYIGERCQYRDLKWWELRHAGHGQQQKVIVVAVCVVVLVMLLLLSLWGAHYYRTQKLLSKNPKNPYEESSRDVRSRRPADTEDGMSSCPQPWFVVIKEHQDLKNGGQPVAGEDGQAADGSMQPTSWRQEPQLCGMGTEQGCWIPVSSDKGSCPQVMERSFHMPSYGTQTLEGGVEKPHSLLSANPLWQQRALDPPHQMELTQ
modifications: Pro-epidermal growth factor
notes: Epidermal Growth Factor, growth factor supplement
B1 was tested, and the “effect on cell growth” value was “positive effect on cell growth”.

— patent US20220090005A1, “Supplemented Serum-Containing Culture Medium for Enhanced Arpe-19 Growth and Human Cytomegalovirus Vaccine Production” (priority 2019, published 2022)
